Assay results reported in PMC7137805.

Key:
[1] = molecular target: Recombinant human laminin‐332 (human) (UniProt Q16787); assay: SPR; BIAcore 3000, 25 °C; laminin-332 immobilised on a CM5 chip (approx. 5000 RU); vWFA2 as analyte, 2.5-420 µM; running buffer 10 mM sodium phosphate pH 7.4, 150 mM NaCl; binding isotherms
[2] = molecular target: Recombinant human laminin‐332 (human) (UniProt Q16787); assay: SPR; as a1, with MgCl2 added to the running buffer to 2.5 mM

Kd [1] | Kd [2] | Substance
440 µM | – | untagged vWFA2 (vWFA2 lacking any tag residues) of murine type VII collagen (from UniProt Q63870 1048-1238) (domain or fragment)
810 µM | 1100 µM | vWFA2 subdomain (amino acids 1048–1238) of murine type VII collagen, purified by intein cleavage (from UniProt Q63870 1048-1238) (domain or fragment)
